B1: CagFbFP-Q148N (domain or fragment)
chain: MASGMIVTDAGADQPIVFVNRAFSTITGYAPNEVLGRNARFLQGPQTDAATVARLREAIAAARPIQERILNYRKDGQPFWNQLSISPVRDETGNVVAFVGVNTDVTA
B2: CagFbFP-Q148D (domain or fragment)
chain: MASGMIVTDAGADQPIVFVNRAFSTITGYAPNEVLGRNARFLQGPQTDAATVARLREAIAAARPIQERILNYRKDGQPFWNQLSISPVRDETGNVVAFVGVDTDVTA
B3: CagFbFP-Q148E (domain or fragment)
chain: MASGMIVTDAGADQPIVFVNRAFSTITGYAPNEVLGRNARFLQGPQTDAATVARLREAIAAARPIQERILNYRKDGQPFWNQLSISPVRDETGNVVAFVGVETDVTA
B4: CagFbFP-Q148H (domain or fragment)
chain: MASGMIVTDAGADQPIVFVNRAFSTITGYAPNEVLGRNARFLQGPQTDAATVARLREAIAAARPIQERILNYRKDGQPFWNQLSISPVRDETGNVVAFVGVHTDVTA
B5: CagFbFP-Q148K (domain or fragment)
chain: MASGMIVTDAGADQPIVFVNRAFSTITGYAPNEVLGRNARFLQGPQTDAATVARLREAIAAARPIQERILNYRKDGQPFWNQLSISPVRDETGNVVAFVGVKTDVTA
B6: CagFbFP-Q148R (domain or fragment)
chain: MASGMIVTDAGADQPIVFVNRAFSTITGYAPNEVLGRNARFLQGPQTDAATVARLREAIAAARPIQERILNYRKDGQPFWNQLSISPVRDETGNVVAFVGVRTDVTA

Target: the molecule itself
Assay: crystal structure

Binding result, binds:
B1
B2
B3
B4
B5
B6

Reference: article doi:10.1101/2021.02.05.429969 (bioRxiv, 2021)
